Measured values as given in patent US20220332804A1 (CSL INNOVATION, published 2022).
Changes are numbered by the printed parent chain.

How the values were obtained:
Assay in all cases: SPR, antibody captured, C2 as analyte;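 note: biacore SPR at 37 °C, anti-C2 mAbs captured via goat anti-human IgG on CM5 chips, double-referenced sensorgrams fit to a 1:1 kinetic or steady-state model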
human C2 K485A = molecular target: T1, human C2 K485A (human, UniProt P06681 21-752)
T1 sequence: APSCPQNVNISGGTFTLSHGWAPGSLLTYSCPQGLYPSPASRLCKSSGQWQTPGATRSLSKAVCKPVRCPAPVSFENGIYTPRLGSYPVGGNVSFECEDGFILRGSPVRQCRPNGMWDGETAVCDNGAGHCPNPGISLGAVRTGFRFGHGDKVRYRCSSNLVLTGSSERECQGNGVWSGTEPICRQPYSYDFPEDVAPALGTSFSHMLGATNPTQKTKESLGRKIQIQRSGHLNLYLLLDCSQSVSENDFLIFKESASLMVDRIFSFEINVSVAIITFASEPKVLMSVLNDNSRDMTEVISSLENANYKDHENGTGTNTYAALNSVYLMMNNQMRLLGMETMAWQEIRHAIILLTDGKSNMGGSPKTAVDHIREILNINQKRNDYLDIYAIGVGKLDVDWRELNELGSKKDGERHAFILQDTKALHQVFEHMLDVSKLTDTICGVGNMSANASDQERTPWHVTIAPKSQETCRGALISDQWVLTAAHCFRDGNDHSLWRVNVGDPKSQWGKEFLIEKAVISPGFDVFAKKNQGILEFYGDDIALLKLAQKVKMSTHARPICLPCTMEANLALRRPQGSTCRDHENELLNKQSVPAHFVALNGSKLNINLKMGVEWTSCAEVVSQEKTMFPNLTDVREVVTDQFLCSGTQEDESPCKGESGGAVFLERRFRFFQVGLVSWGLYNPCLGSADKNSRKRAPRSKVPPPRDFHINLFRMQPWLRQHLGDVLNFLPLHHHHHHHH
Protocol: (§1) Surface plasmon resonance (SPR, Biacore) was used for all binding affinity analyses. In brief, goat anti-human IgG was directly immobilised onto the carboxymethyl dextran surface of CM5 sensorchips to approximately 12,000 RU using standard NHS/EDC chemistry at pH 5. The immobilised antibody surface was pre-conditioned with ten injections of polyclonal human IgG (Privigen 60 s) prepared at 1 μg/mL. Ligands (anti-C2 mAbs) were captured at the beginning of each cycle as described below. An adjacent spot or flow cell in which only Polyclonal IgG was capture was used as a reference surface. The goat anti-human IgG Fc antibody surface was regenerate in 100 mM H3PO4, injected for 45 seconds at the end of each cycle. Experiments were performed at 37° C. and the flow rate of each experiment was kept constant at 30 μL/min.
(§2) Sensogram data was double-referenced against a reference anti-IgG surface (i.e. minus anti-C2 mAb) and blank buffer injections obtained within each experiment. The binding data was fit to 1:1 (kinetic or steady-state) model using local Rmax and null refraction index (RI=0) when appropriate. Buffers and solutions were filtered (0.22 μm) prior to use.

human C2 H451A = molecular target: T2, human C2 H451A (human, UniProt P06681 21-752)
T2 sequence: T1 sequence with H431A, A465K
Protocol: as §1, §2

human C2 K274A = molecular target: T3, human C2 K274A (human, UniProt P06681 21-752)
T3 sequence: T1 sequence with K254A, A465K
Protocol: as §1, §2

human C2 I320A = molecular target: T4, human C2 I320A (human, UniProt P06681 21-752)
T4 sequence: T1 sequence with I300A, A465K
Protocol: as §1, §2

B1: RF16-226 (antibody, human IgG4 S228P, lambda)
heavy: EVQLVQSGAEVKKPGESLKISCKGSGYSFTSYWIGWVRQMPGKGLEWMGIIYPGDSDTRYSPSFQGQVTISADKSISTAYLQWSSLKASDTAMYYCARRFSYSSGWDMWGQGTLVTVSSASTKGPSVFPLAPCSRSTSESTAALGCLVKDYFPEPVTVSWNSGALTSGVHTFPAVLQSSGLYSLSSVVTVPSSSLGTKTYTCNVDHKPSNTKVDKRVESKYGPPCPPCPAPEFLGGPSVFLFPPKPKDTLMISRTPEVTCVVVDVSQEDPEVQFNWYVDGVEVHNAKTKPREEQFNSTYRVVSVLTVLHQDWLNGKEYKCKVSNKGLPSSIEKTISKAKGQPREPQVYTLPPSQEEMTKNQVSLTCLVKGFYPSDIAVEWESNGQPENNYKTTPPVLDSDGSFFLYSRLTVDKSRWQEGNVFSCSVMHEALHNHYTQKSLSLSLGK
light: SYELTQPPSVSVSPGQTARITCSGDALTSKYVAWYQQKSGLAPLLVIYEDTRRPSGIPAKFSGSSSGSVATLTISGAHGDDEADYYCYSTDASGHQRVFGGGTKLTVLSQPKAAPSVTLFPPSSEELQANKATLVCLISDFYPGAVTVAWKADGSPVKAGVETTKPSKQSNNKYAASSYLSLTPEQWKSHRSYSCQVTHEGSTVEKTVAPTECS
notes: pH-dependent anti-C2 antibody from a phage display library; also called WT
Kd (human C2 K485A): 12.5 nM | Kd (human C2 H451A): 105 nM | Kd (human C2 K274A): 291 nM | Kd (human C2 I320A): 116 nM
